Patent publication US20150218594A1, “CELL-FREE AND MINIMIZED METABOLIC REACTION CASCADES FOR THE PRODUCTION OF CHEMICALS” (CLARIANT PRODUKTE (DEUTSCHLAND) GMBH, priority 2012, published 2015)
Changes are numbered by the printed parent chain. In names and notes the source's numbering stands.

B1: wildtype (wt): Aldehyde Dehydrogenase ALDH (EC 1.2.1.3), Thermoplasma acidophilum, Seq ID 08, wildtype, non-optimized enzyme (protein)
chain: MDTKLYIDGQWVNSSSGKTVDKYSPVTGQVIGRFEAATRDDVDRAIDAAEDAFWAWNDLGSVERSKIIYRAKELIEKNRAELENIIMEENGKPVKEAKEEVDGVIDQIQYYAEWARKLNGEVVEGTSSHRKIFQYKVPYGIVVALTPWNFPAGMVARKLAPALLTGNTVVLKPSSDTPGSAEWIVRKFVEAGVPKGVLNFITGRGSEIGDYIVEHKKVNLITMTGSTATGQRIMQKASANMAKLILELGGKAPFMVWKDADMDNALKTLLWAKYWNAGQSCIAAERLYVHEDIYDTFMSRFVELSRKLALGDPKNADMGPLINKGALQATSEIVEEAKESGAKILFGGSQPSLSGPYRNGYFFLPTIIGNADQKSKIFQEEIFAPVIGARKISSVEEMYDLANDSKYGLASYLFTKDPNIIFEASERIRFGELYVNMPGPEASQGYHTGFRMTGQAGEGSKYGISEYLKLKNIYVDYSGKPLHINTVRDDLFQSGRPVLGSSHHHHHH
modifications: Aldehyde Dehydrogenase (EC 1.2.1.3), Thermoplasma acidophilum, wildtype enzyme Protein sequence including C-terminal His-Tag
B2: F34L S405C: optimized Thermoplasma acidophilum aldehyde dehydrogenase with the mutations F34L and S405C (protein)
chain: B1 chain with F34L, S405C
modifications: TaALDH-F34L-S405C-Chis
B3: F34M S405N: optimized Thermoplasma acidophilum aldehyde dehydrogenase with the mutations F34M and S405N (protein)
chain: B1 chain with F34M, S405N
modifications: TaALDH-F34M-S405N-Chis
B4: S405C: optimized Thermoplasma acidophilum aldehyde dehydrogenase with the mutation of S405C (protein)
chain: B1 chain with S405C
modifications: TaALDH-S405C-Chis
B5: F34M W271S Y399C S405N: optimized Thermoplasma acidophilum aldehyde dehydrogenase with the mutations F34M, W271S, Y399C and S405N (protein)
chain: B1 chain with F34M, W271S, Y399C, S405N
modifications: TaALDH-F34M-W271S-Y399C-S405N-Chis
B6: W271S: optimized Thermoplasma acidophilum aldehyde dehydrogenase with the mutation of W271S (protein)
chain: B1 chain with W271S
modifications: TaALDH-W271S-Chis
B7: F34M W271S S405N: TaALDH variant with the mutations F34M, W271S and S405N; no SEQ ID printed (protein)
chain: B1 chain with F34M, W271S, S405N
B8: F34L: optimized Thermoplasma acidophilum aldehyde dehydrogenase with the mutation of F34L (protein)
chain: B1 chain with F34L
modifications: taALDH-F34L-Chis
B9: Y399R: optimized Thermoplasma acidophilum aldehyde dehydrogenase with the mutation of Y399R (protein)
chain: B1 chain with Y399R
modifications: TaALDH-Y399R-Chis

Test: Determination of specific activity of purified TaALDH variants
Type: biochemical
Conditions: purified enzyme, 1 mM D-Glyceraldehyde, 50° C., pH 7
From the text: The Ta-aldh gene was cloned in pCBR-Chis expression vector as described above. Mutations F34L, F34M, Y399C, S405C and S405N were inserted into Ta-aldh gene by Quickchange PCR as described above. For recombinant expression, E. coli BL21 (DE3) was transformed with pCBR-Ta-aldh-Chis, pCBR-Ta-aldh-f34I-s405c-Chis, pCBR-Ta-aldh-f34m-s405n-Chis or pCBR-Ta-aldh-f34m-y399c-s405n-Chis. Each of the four variants was produced using the following protocol:
Large amounts of a TaALDH-Variant were produced with fed-batch fermentation in a 40 L Biostat Cplus bioreactor (Sartorius Stedim, Goettingen, Germany). Defined media was supplemented with 30 μg/ml kanamycin. After inoculation cells were grown at 30° C. for 24 h and induced with 0.3 mM IPTG. Enzyme expression was performed at 30° C. for 3 h. One fermentation produced 300 g cells (wet weight). Cells were harvested and lysed with Basic-Z Cell Disruptor (Constant Systems, Northants, UK) in loading buffer (200 mM NaCl; 20 mM Imidazol; 2.5 mM MgCl2; 50 mM NaPi, pH 6.2). After heat treatment at 50° C. for 30 min, cell debris and protein aggregates were separated from soluble fraction by centrifugation at 30,000 g at 20° C. for 30 min (Sorvall RC6+, SS-34 rotor, Thermo Scientific).
Soluble fraction of His-tagged TaALDH-Variant was further purified by Ni-NTA chromatography using ÄKTA UPC-900 FPLC-system (GE Healthcare, Freiburg, Germany). Supernatant was loaded on HiTrap FF-column and washed with two column volumes of loading buffer. Highly purified and concentrated TaALDH was fractioned after elution in imidazole buffer (200 mM NaCl; 500 mM imidazol; 50 mM NaPi, pH 6.2). Buffer was changed to 20 mM (NH4)HCO3 with HiPrep 26/10 Desalting column and TaALDH was lyophilized with an Alpha 2-4 LD Plus freeze dryer (Martin Christ GmbH, Osterode am Harz, Germany).
TaALDH activity was determined spectrophotometrically at 50° C. by measuring the rate of cofactor reduction at 340 nm in flat bottom microtiter plates (Grainer BioOne) with a Fluorostar Omega Photometer (BMG Labtech GmbH, Ortenberg, Germany). One unit of activity was defined as reduction of 1 μmol of cofactor per minute.

First: B1
Second: B2
The “specific activity (U/mg) at 2 mM NAD” value of the first is lower: 0.2 U/mg for the first, 1 U/mg for the second.

For B3, the “specific activity (U/mg) at 2 mM NAD” value was 1.2 U/mg.

Test: Screening of TaALDH variants, relative activity under standard conditions (2 mM NAD)
Type: biochemical
Conditions: 1 mM D-glyceraldehyde, 50° C., pH 7, lysate supernatant
Procedure: (§1) Colonies of E. coli BL21 (DE3) containing Ta-ALDH library were transferred into 96-deepwell plates (Gainer BioOne) containing Zym5052 autoinduction medium (Protein Expression and Purification, 2005. 41(1): p. 207-234). Cultures were grown over night at 37° C., 1000 rpm. Cells were harvested by centrifugation at 5000 g at 2° C. for 2 min and lysed with B-Per® protein extraction reagent (Thermo Fisher Scentific, Rockford, USA). After incubation for 60 min at 50° C., insoluble cell debris and was removed by centrifugation at 5000 g at 20° C. for 30 min. Supernatants containing variants of TaALDH were tested for relative activity under standard conditions: 2 mM NAD, 1 mM D-glyceraldehyde in 50 mM HEPES (pH 7) at 50° C. After 20 min NADH formation was detected spectrophotometrically at 340 nm.
(§2) The values “relative to wt” are the mU/mL values normalized to the wildtype control value.

First: B4
Second: B5
The “2 mM NAD (mU/mL)” value of the first is higher: 19.29 mU/mL for the first, 3 mU/mL for the second.

Going from B1 to B2, the “2 mM NAD (mU/mL)” value rises from 2.89 mU/mL to 15.23 mU/mL.

Going from B6 to B7, the “2 mM NAD (mU/mL)” value rises from 58.35 mU/mL to 125.38 mU/mL.

Going from B3 to B8, the “2 mM NAD (mU/mL)” value falls from 25.87 mU/mL to 9.09 mU/mL.

For B9, the “2 mM NAD (mU/mL)” value was 3.76 mU/mL.

Same assay, conditions: mU/mL values normalized to the wildtype control value

Going from B4 to B5, the relative to wt falls from 6.7 to 1.0.

First: B1
Second: B2
The relative to wt of the first is lower: 1.0 for the first, 5.3 for the second.

Going from B6 to B7, the relative to wt rises from 20.2 to 43.4.

Going from B3 to B8, the relative to wt falls from 9.0 to 3.1.

B9 gave a relative to wt of 1.3.

Test: Cofactor acceptance of Ta-ALDH variants (10 mM NAD)
Type: biochemical
Conditions: 10 mM NAD, 1 mM D-glyceraldehyde, 50° C., pH 7
Procedure: as §1
Change in cofactor acceptance of Ta-ALDH variants was tested under standard assay conditions but with 10 mM NAD. After 20 min NADH formation was detected and compared to relative activity.
as §2

Compared with B4, B5 is lower in “10 mM NAD (mU/mL)” value: 66.82 mU/mL for the first, 8.08 mU/mL for the second.

First: B1
Second: B2
The “10 mM NAD (mU/mL)” value of the first is lower: 11.92 mU/mL for the first, 46.83 mU/mL for the second.

Compared with B6, B7 is higher in “10 mM NAD (mU/mL)” value: 181.89 mU/mL for the first, 279.58 mU/mL for the second.

Going from B3 to B8, the “10 mM NAD (mU/mL)” value falls from 74.31 mU/mL to 31.72 mU/mL.

In the case of B9, the “10 mM NAD (mU/mL)” value is reported as 11.56 mU/mL.

Same assay, conditions: 10 mM NAD; normalized to the wildtype control value

First: B4
Second: B5
The relative to wt of the first is higher: 5.6 for the first, 0.7 for the second.

First: B1
Second: B2
The relative to wt of the first is lower: 1.0 for the first, 3.9 for the second.

Compared with B6, B7 is higher in relative to wt: 15.3 for the first, 23.5 for the second.

Going from B3 to B8, the relative to wt falls from 6.2 to 2.7.

B9 gave a relative to wt of 1.0.

Same assay, conditions: ratio of activity at 10 mM NAD to 2 mM NAD

First: B4
Second: B5
The 10 mM NAD /2 mM NAD of the first is higher: 0.8 for the first, 0.7 for the second.

Compared with B1, B2 is lower in 10 mM NAD /2 mM NAD: 1 for the first, 0.7 for the second.

Compared with B6, B7 is lower in 10 mM NAD /2 mM NAD: 0.8 for the first, 0.5 for the second.

Compared with B3, B8 is higher in 10 mM NAD /2 mM NAD: 0.7 for the first, 0.8 for the second.

B9 gave a 10 mM NAD /2 mM NAD of 0.7.

Test: Activity in solvents of Ta-ALDH variants (3 % isobutanol)
Type: biochemical
Conditions: 3 % isobutanol, 2 mM NAD, 50° C., pH 7
Procedure: as §1
Activity in solvents of Ta-ALDH variants was tested under standard assay conditions containing additional solvent. After 20 min NADH formation was detected and compared to relative activity.
as §2

Going from B4 to B5, the “3 % isobutanol, 2 mM NAD (mU/mL)” value falls from 12.65 mU/mL to 1.3 mU/mL.

Compared with B1, B2 is higher in “3 % isobutanol, 2 mM NAD (mU/mL)” value: 1.60 mU/mL for the first, 8.17 mU/mL for the second.

Compared with B6, B7 is higher in “3 % isobutanol, 2 mM NAD (mU/mL)” value: 20.8 mU/mL for the first, 43.86 mU/mL for the second.

Going from B3 to B8, the “3 % isobutanol, 2 mM NAD (mU/mL)” value falls from 15.62 mU/mL to 4.08 mU/mL.

For B9, the “3 % isobutanol, 2 mM NAD (mU/mL)” value was 2.16 mU/mL.

Same assay, conditions: 3 % isobutanol, 2 mM NAD; normalized to the wildtype control value

First: B4
Second: B5
The relative to wt of the first is higher: 7.9 for the first, 0.8 for the second.

Going from B1 to B2, the relative to wt rises from 1.0 to 5.1.

Compared with B6, B7 is higher in relative to wt: 13 for the first, 27.5 for the second.

Compared with B3, B8 is lower in relative to wt: 9.8 for the first, 2.6 for the second.

For B9, the relative to wt was 1.4.

Same assay, conditions: stability in 3 % isobutanol relative to wildtype

Compared with B4, B5 is lower in “Stab. rel to wt” value: 1.2 for the first, 0.8 for the second.

B1 and B2 are the same in “Stab. rel to wt” value: 1.0 for the first, 1.0 for the second.

B6 and B7 are the same in “Stab. rel to wt” value: 0.6 for the first, 0.6 for the second.

First: B3
Second: B8
The “Stab. rel to wt” value of the first is higher: 1.1 for the first, 0.8 for the second.

In the case of B9, the “Stab. rel to wt” value is reported as 1.
